Experiment [1] addresses T1, Aim21 (Altered Inheritance of Mitochondria 21), full length, 6His-SUMO tag cleaved (budding yeast, UniProt P40563 1-679).
T1 sequence (looked up): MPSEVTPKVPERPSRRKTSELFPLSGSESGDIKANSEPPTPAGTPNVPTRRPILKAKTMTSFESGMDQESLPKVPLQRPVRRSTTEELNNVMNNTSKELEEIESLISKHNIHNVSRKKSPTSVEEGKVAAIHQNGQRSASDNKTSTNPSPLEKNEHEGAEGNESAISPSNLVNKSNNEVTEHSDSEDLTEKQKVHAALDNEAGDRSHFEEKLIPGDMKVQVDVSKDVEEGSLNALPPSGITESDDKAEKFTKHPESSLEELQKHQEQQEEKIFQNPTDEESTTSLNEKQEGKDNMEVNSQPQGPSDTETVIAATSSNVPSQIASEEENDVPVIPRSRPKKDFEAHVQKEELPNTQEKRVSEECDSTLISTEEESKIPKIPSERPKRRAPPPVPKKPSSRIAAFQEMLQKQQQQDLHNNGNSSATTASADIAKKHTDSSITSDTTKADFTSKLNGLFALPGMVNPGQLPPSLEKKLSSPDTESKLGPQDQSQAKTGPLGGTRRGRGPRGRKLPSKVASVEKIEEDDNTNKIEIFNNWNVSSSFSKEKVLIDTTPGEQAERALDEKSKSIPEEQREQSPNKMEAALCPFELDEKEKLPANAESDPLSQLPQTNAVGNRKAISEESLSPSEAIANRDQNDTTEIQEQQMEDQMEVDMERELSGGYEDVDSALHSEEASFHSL
The experiment is described as follows: pull-down.

In experiment [2] the target is T2, 6His-SUMO-Cap2 (budding yeast, UniProt P13517 1-287).
T2 sequence (looked up): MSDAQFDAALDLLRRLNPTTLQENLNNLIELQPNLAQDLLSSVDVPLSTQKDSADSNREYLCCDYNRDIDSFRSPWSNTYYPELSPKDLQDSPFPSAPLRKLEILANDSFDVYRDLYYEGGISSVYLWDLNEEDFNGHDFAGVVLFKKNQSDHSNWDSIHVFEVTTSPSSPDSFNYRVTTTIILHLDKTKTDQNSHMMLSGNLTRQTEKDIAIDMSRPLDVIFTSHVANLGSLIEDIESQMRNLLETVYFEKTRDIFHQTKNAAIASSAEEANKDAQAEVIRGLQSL
The experiment is described as follows: pull-down.

B1: 6His-SUMO-Tda2 (natural protein, budding yeast, UniProt P40045 1-126, looked up)
chain: MSMQIEIKDGRSDNSPLPERKLVTLIQESYDSLKDDNEINLSTESTSNLLIKLVLEKLEKHSSLYKYIASVTTLNIEGLNEENANFSLKNDIGASWESKKDGIFNYKLEDKNNNECYLITILWLHK
For the molecule B1, the binding result in experiment [1] is on record as “binds”.

B2: Cap1, 6His-SUMO tag cleaved (natural protein, budding yeast, UniProt P28495 1-268, looked up)
chain: MSSSKFEEVINKIINDSPPGELREVYDDLIKITSENSKNTILDAIENYNVQNCIPIEVNGNSVIISKYNKEGAKFFDPVNSVIFSVNHLERKGLDIEPYEFTHAKIEKGQLKELHDKLHEYLLQSFPGDVSFAVYPVPEEISKISIIIVSTKYNPNNFWNGHWRSSYIYDLETRELSGQISTQVHYYEDGNVSFQSGKDINQSNVDDVVCTIRDIETNFENDLDLSFFDLNEKQFKALRRRLPVTRSKINWGSAIGSYRLGKNAAEGK
For B2, the binding result in experiment [2] is “binds”.

These data come from article PMC5896931 (Molecular Biology of the Cell, 2018).
